Experimental findings from patent US20170044260A1 (Innovent, published 2017) are described below.

Residue numbers refer to the chain shown, from its start. Numbers in names are those of the source.

A word on the Kd: it is the constant that tells how readily two partners part at equilibrium. High values mean lower affinity, low ones higher affinity. One may read the EC50 as the concentration that produces a half-maximal response. Read a low EC50 as an effect from little substance. Broadly, the koff is the first-order rate constant of dissociation. Read a low koff as slow dissociation. One may read the kon as a measure of how fast the partners come together. Low values mean slow association, high ones fast association. As a reminder, the IC50 is the midpoint of a concentration-inhibition curve. A higher IC50 goes with a need for much substance.

One assay addresses cynoPD-1_Fc (cyno) (UniProt B0LAJ3). Nature of the assay: bio-layer interferometry (ForteBio), monovalent: Fab in solution, cynoPD-1_Fc on sensor tip. On the technique in general: In BLI a coated tip is dipped into the sample, and binding shifts an interference pattern.
The target in the next assay is cynoPD-1_Fc (cyno, UniProt B0LAJ3 25-170). The assay is described as above.
For assay [1], the target named is T1, human PD-1 on cells (human, UniProt Q15116 25-288). In words: flow cytometry blocking: CHO cells with human PD-1, 100 nM antibody, then PD-L2-FITC (competitor); remaining PD-L2-FITC signal. (A flow cytometer gives signals particle by particle.)
Assay [2] deals with T1, human PD-1 on cells. In words: cell-based or functional assay.
Assay [3] addresses T1, human PD-1 on cells. In words: flow cytometry on CHO cells with human PD-1, PE-labelled secondary antibody. The procedure: Cells are then washed 3×, and are incubated with a secondary antibody (PE-labelled, at final concentration of 5 μg/ml) in PBS 1% BSA for 30 min on ice (protected from light). Cells are washed 3× and analyzed via flow cytometry. Flow cytometry is performed on an Accuri C6 system (BD Biosciences) and MFIs are calculated on the C6 software. EC50s are calculated on Graphpad software.

Assay [4] concerns the target T1, human PD-1 on cells. In words: cell-based or functional assay. The source holds these as a separate data set.
Assay [5] deals with T2, hPD-1_HIS (human, UniProt Q15116 25-167, limits assumed).
T2 construct: not shown: His tag
Nature of the assay: bio-layer interferometry (ForteBio), monovalent: hPD-1_HIS in solution, IgG on sensor tip. On the procedure: Briefly, ForteBio affinity measurements are performed by loading IgGs online onto AHQ sensors. Sensors are equilibrated off-line in assay buffer for 30 min and then monitored on-line for 60 seconds for baseline establishment. Sensors with loaded IgGs are exposed to 100 nM antigen for 5 min, afterwards they are transferred to assay buffer for 5 min for off-rate measurement. Kinetics are analyzed using the 1:1 binding model.

Assay [6] deals with T2, hPD-1_HIS. In words: bio-layer interferometry, antibody on the sensor tip; reference nivolumab and pembrolizumab.
In assay [7] the target is T3, b-PD-1 monomer (human, UniProt Q15116 25-167, limits assumed, biotinylated (b-); site not stated).
T3 construct: also called human PD-1; antigen of the MSD assay
Nature of the assay: MSD solution equilibrium titration, monovalent KD against human PD-1; monovalent KD, IgG1 format. The procedure: (§1) Equilibrium affinity measurements are performed as previously described (Estep, P., et al., MAbs, 2013. 5(2): p. 270-8). […] Antibodies diluted at 20 nM in PBS are coated onto standard bind MSD-ECL plates overnight at 4° C. or at room temperature for 30 min. Plates are blocked with BSA for 30 min whilst shaking at 700 rpm. Plates are then washed 3× with wash buffer (PBSF+0.05% Tween 20). SET samples are applied and incubated on the plates for 150 s with shaking at 700 rpm followed by one wash. Antigen captured on a plate is detected with 250 ng/mL sulfotag-labeled streptavidin in PBSF by incubation on the plate for 3 min. The plates are washed three times with wash buffer and are then read on the MSD Sector Imager 2400 instrument using 1× Read Buffer T with surfactant. The percent free antigen is plotted as a function of titrated antibody in Prism and fit to a quadratic equation to extract the KD. To improve throughput, liquid handling robots are used throughout MSD-SET experiments, including for SET sample preparation.

Assay [8] concerns the target T4, human PD-1 (antigen of the avid KD measurement by MSD) (human, UniProt Q15116 25-167, limits assumed). Nature of the assay: MSD solution equilibrium titration, avid KD against human PD-1; avid KD, IgG1 format. The procedure:
as §1

The target in assay [9] is T5, hPD-1_Fc (human, UniProt Q15116 25-167, limits assumed).
T5 construct: also called human PD-1_Fc; not shown: Fc part
In words: bio-layer interferometry (ForteBio), monovalent: Fab in solution, hPD-1_Fc on sensor tip.

Assay [10] addresses T5, hPD-1_Fc. Nature of the assay: bio-layer interferometry, PD-1_Fc on the sensor tip; reference nivolumab and pembrolizumab.
The target of assay [11] is T6, human PD-1-Fc (R&D Systems) (human, UniProt Q15116 25-167).
T6 construct: not shown: Fc part of the bought fusion protein; not described
Nature of the assay: SPR (Biacore T200), human PD-1-Fc immobilized, antibody as analyte, 37° C. The procedure: (§2) All sample analytes are run in 3-fold series dilutions from their starting concentration (90 nM), 8 total dilutions with one duplicate at a middle concentration and a zero. The analysis is performed at 37° C. The contact time for each sample is 180 sec at 30 μl/min. The dissociation time: 300 seconds for 5 lower concentrations and 1200 (Fab), or 2400 (T=0) or 3000 (4 weeks 4° C., 25° C., 40° C.) seconds for 3 higher concentrations. The immobilized surface is regenerated for 6-8 seconds with 0.4% SDS at 30 ul/min, and then stabilized for 5 seconds. Binding kinetics are analyzed using the Biacore T200 Evaluation software (Version 3.0). Data are referenced to a blank flow cell, and the data are fit to a 1:1 binding model.
On the technique in general: Surface plasmon resonance follows binding to a sensor surface in real time, without labels.

Assay [12] concerns the target T6, human PD-1-Fc (R&D Systems). In words: SPR (Biacore T200), human PD-1-Fc immobilized, antibody stored 4 weeks at 25° C. as analyte, 37° C. On the procedure: as §2
For assay [13], the target named is T7, biotinylated PD-1-Fc fusion protein (human, UniProt Q15116 25-170, limits assumed, biotinylated; site not stated).
T7 construct: also called human PD-1; not shown: Fc part; not described
Nature of the assay: ELISA blocking: antibody mixed with biotinylated PD-1-Fc, plate coated with PD-L1-Fc (competitor).

Assay [14] addresses T7, biotinylated PD-1-Fc fusion protein. Nature of the assay: ELISA blocking: antibody mixed with biotinylated PD-1-Fc, plate coated with PD-L2-Fc (competitor).
Assay [15] deals with T6, human PD-1-Fc (R&D Systems). In words: SPR (Biacore T200), human PD-1-Fc immobilized, antibody stored 4 weeks at 4° C. as analyte, 37° C. The procedure:
as §2

Assay [16] has the same target. Nature of the assay: SPR (Biacore T200), human PD-1-Fc immobilized, antibody stored 4 weeks at 40° C. as analyte, 37° C. The procedure: as §2
Assay [17] concerns the target T3, b-PD-1 monomer. Nature of the assay: MSD solution equilibrium titration, monovalent KD against human PD-1. On the procedure: as §1
For assay [18], the target named is T4, human PD-1 (antigen of the avid KD …). Nature of the assay: MSD solution equilibrium titration, avid KD against human PD-1. On the procedure: as §1

Sequence of cynoPD-1_Fc (B0LAJ3 entry or part of it limits assumed): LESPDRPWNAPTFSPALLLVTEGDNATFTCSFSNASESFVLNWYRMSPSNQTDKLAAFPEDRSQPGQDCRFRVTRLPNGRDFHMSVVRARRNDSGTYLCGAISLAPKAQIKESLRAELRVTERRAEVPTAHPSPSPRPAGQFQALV
T1 sequence (Q15116 25-288 limits assumed): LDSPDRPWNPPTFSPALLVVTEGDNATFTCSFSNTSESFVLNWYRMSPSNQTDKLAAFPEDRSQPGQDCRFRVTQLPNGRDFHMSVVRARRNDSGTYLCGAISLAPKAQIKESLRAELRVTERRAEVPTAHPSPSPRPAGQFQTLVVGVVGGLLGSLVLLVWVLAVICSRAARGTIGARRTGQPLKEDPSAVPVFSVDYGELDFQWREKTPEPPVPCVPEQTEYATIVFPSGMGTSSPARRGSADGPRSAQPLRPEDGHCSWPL
T6 sequence (Q15116 25-167 limits assumed): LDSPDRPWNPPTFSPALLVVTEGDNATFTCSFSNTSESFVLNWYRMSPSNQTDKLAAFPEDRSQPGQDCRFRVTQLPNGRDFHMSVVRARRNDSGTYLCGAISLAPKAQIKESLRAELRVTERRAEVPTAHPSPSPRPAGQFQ
T5 sequence (Q15116 25-167 limits assumed): as above
T2 sequence (Q15116 25-167 limits assumed): as above
T7 sequence (Q15116 25-170 limits assumed): as the sequence (B0LAJ3 entry or part of it limits assumed) above, with E2D, A10P, L19V, A35T, R75Q, A144T counted along it
T4 sequence (Q15116 25-167 limits assumed): as the sequence (Q15116 25-167 limits assumed) above
T3 sequence (Q15116 25-167 limits assumed): as above
Sequence of cynoPD-1_Fc (cyno) (B0LAJ3 entry or part of it limits assumed): as the sequence (B0LAJ3 entry or part of it limits assumed) above

For the molecule Fab of Pembrolizumab in IgG1 format, in the assay with cynoPD-1_Fc (cyno), the Kd turned out to be 0.47 nM.
Molecule Fab of Nivolumab in IgG1 format had a Kd in the assay with cynoPD-1_Fc of 1.2 nM.
In turn, control IgG (antibody) showed an MFI (PD-L2-FITC) with human PD-1 on cells [1] of 183000 MFI.

B1: Antibody G (S228P IgG4) (antibody, V domains shown)
VH: QVQLVQSGAEVKKPGSSVRVSCKASGGTLSSYAISWVRQAPGQGLEWMGLIIPMFGAAGYAQRFQGRVTITADESASTAYMELSSLRSEDTAVYYCARAEHSSTGTFDYWGQGTLVTVSS
VL: DIQMTQSPSSVSASVGDRVTITCRASQGISSWLAWYQQKPGKAPKLLISAASSLQSGVPSRFSGSGSGTDFTLTISSLQPEDFATYYCQQANHLPFTFGGGTKVEIKR
For the molecule B1, in the assay with human PD-1 on cells [2], the “IFN-γ secretion fold change vs. IgG control, 0.01 nM IgG (mixed lymphocyte reaction)” value amounted to 1.17 fold; the “IFN-γ secretion fold change vs. IgG control, 0.1 nM IgG (mixed lymphocyte reaction)” value amounted to 1.91 fold; the “IFN-γ secretion fold change vs. IgG control, 1 nM IgG (mixed lymphocyte reaction)” value turned out to be 2.48 fold; the “IFN-γ secretion fold change vs. IgG control, 10 nM IgG (mixed lymphocyte reaction)” value came out at 2.04 fold. The “IFN-γ secretion fold change vs. IgG control, 100 nM IgG (mixed lymphocyte reaction)” value with human PD-1 on cells [2] was determined as 2.07 fold. In the assay with human PD-1 on cells [3], this molecule showed an EC50 of 1.76 nM. In addition, in the assay with human PD-1 on cells [4], the “IL-2 secretion fold change vs. IgG control, 0.01 nM IgG (mixed lymphocyte reaction)” value is 1.36 fold; the “IL-2 secretion fold change vs. IgG control, 0.1 nM IgG (mixed lymphocyte reaction)” value was found to be 1.91 fold; the “IL-2 secretion fold change vs. IgG control, 1 nM IgG (mixed lymphocyte reaction)” value came out at 3.12 fold; the “IL-2 secretion fold change vs. IgG control, 10 nM IgG (mixed lymphocyte reaction)” value was 2.62 fold. In the assay with human PD-1 on cells [4], the “IL-2 secretion fold change vs. IgG control, 100 nM IgG (mixed lymphocyte reaction)” value was determined as 2.45 fold.

B2: Antibody D in IgG1 format (antibody, V domains shown)
VH: B1 VH with R19K, L29F, G56D, A57T, R63K, T69A, A72V, A76T
VL: DIQMTQSPSSVSASVGDRVTITCRASQGISSWLAWYQQKPGKAPKLLISAASSLQSGVPSRFSGSGSGTDFTLTISSLQPEDFATYYCQQANHLPFTFGGGTKVEIK
notes: IgG1 format, expressed in yeast; also called Antibody D in an IgG1 format and expressed in yeast
Turning to B2, the dissociation constant (Kd) in the assay with hPD-1_HIS [5] was determined as 0.31 nM; with b-PD-1 monomer [7], 0.012 nM; in [8], 0.0009 nM. In addition, the “fold lower KD than nivolumab and pembrolizumab” value with hPD-1_HIS [6] was 6 fold.

B3: Fab of Antibody D in IgG1 format (Fab, V domains shown)
VH: B1 VH with R19K, L29F, G56D, A57T, R63K, T69A, A72V, A76T
VL: B2 VL
notes: also called Fab in solution (row Antibody D in IgG1 format)
For the molecule B3, the dissociation constant Kd was 0.67 nM with cynoPD-1_Fc and 0.56 nM in the assay with hPD-1_Fc [9]. For the same molecule, in the assay with hPD-1_Fc [10], the “fold lower KD than nivolumab and pembrolizumab” value was 3 fold.

B4: Antibody D (S228P IgG4) (antibody, V domains shown)
VH: B1 VH with R19K, L29F, G56D, A57T, R63K, T69A, A72V, A76T
VL: B1 VL
Turning to B4, in the assay with human PD-1 on cells [2], the “IFN-γ secretion fold change vs. IgG control, 0.01 nM IgG (mixed lymphocyte reaction)” value turned out to be 1.32 fold; the “IFN-γ secretion fold change vs. IgG control, 0.1 nM IgG (mixed lymphocyte reaction)” value worked out at 1.94 fold; the “IFN-γ secretion fold change vs. IgG control, 1 nM IgG (mixed lymphocyte reaction)” value is 2.26 fold; the “IFN-γ secretion fold change vs. IgG control, 10 nM IgG (mixed lymphocyte reaction)” value was 1.99 fold. The “IFN-γ secretion fold change vs. IgG control, 100 nM IgG (mixed lymphocyte reaction)” value with human PD-1 on cells [2] turned out to be 1.72 fold. In the assay with human PD-1 on cells [3], the EC50 amounted to 0.978 nM. Further, in assay [11], binding was characterised by a dissociation constant (Kd) of 0.104 nM, the koff is 2.98e-05 s⁻¹ and the kon came to 286000 M⁻¹ s⁻¹. Moreover, in assay [12], the Kd is 0.102 nM, the koff is 3.6e-05 s⁻¹ and the kon worked out at 354000 M⁻¹ s⁻¹. This molecule displayed a half-inhibitory concentration (IC50) in assay [13] of 0.3 nM. The IC50 in assay [14] was 0.34 nM. In assay [15], this molecule returned a Kd of 0.103 nM, a koff of 3.86e-05 s⁻¹ and a kon of 377000 M⁻¹ s⁻¹. In [16], this molecule displayed a Kd of 0.118 nM, a koff of 4.22e-05 s⁻¹ and a kon of 358000 M⁻¹ s⁻¹. Also, in the assay with human PD-1 on cells [4], the “IL-2 secretion fold change vs. IgG control, 0.01 nM IgG (mixed lymphocyte reaction)” value came to 1.25 fold; the “IL-2 secretion fold change vs. IgG control, 0.1 nM IgG (mixed lymphocyte reaction)” value is 1.64 fold; the “IL-2 secretion fold change vs. IgG control, 1 nM IgG (mixed lymphocyte reaction)” value came to 2.45 fold; the “IL-2 secretion fold change vs. IgG control, 10 nM IgG (mixed lymphocyte reaction)” value worked out at 2.63 fold. For the same molecule, in the assay with human PD-1 on cells [4], the “IL-2 secretion fold change vs. IgG control, 100 nM IgG (mixed lymphocyte reaction)” value amounted to 3.08 fold.

B5: Fab of Antibody G in IgG1 format (Fab, V domains shown)
VH: B1 VH
VL: B2 VL
notes: also called Fab in solution (row Antibody G in IgG1 format)
Regarding B5, the Kd in the assay with cynoPD-1_Fc worked out at 0.59 nM; with hPD-1_Fc [9], 0.49 nM. Moreover, the “fold lower KD than nivolumab and pembrolizumab” value in the assay with hPD-1_Fc [10] was found to be 4 fold.

B6: Antibody G in IgG1 format (antibody, V domains shown)
VH: B1 VH
VL: B2 VL
notes: IgG1 format, expressed in yeast; also called Antibody G in an IgG1 format and expressed in yeast
Consider B6, for which the Kd with b-PD-1 monomer [17] was 0.014 nM; with hPD-1_HIS [5] it was 0.44 nM; in assay [18], 0.001 nM. The “fold lower KD than nivolumab and pembrolizumab” value in the assay with hPD-1_HIS [6] stood at 4 fold.
